Measurements: US20220251206A1 (Bristol-Myers Squibb, published 2022)

B1: de-prodrugged Antibody A1 (antibody, human IgG1, kappa, V domains shown)
VH: QVQLVESGGGVVQPGRSLRLSCAASGFTFSSYTMHWVRQAPGKGLEWVTFISYDGNCKYYADSVKGRFTISRDNSKNTLYLQMNSLRAEDTAIYYCARTGWLGPFDYWGQGTLVTVSS
VL: not shown
modifications: succinimide residue (or its ring-opened derivative) left on the substituted-in Cys of VH CDR2 after cleavage of the linker
B2: de-prodrugged Antibody E1 (antibody, human IgG1, kappa, V domains shown)
VH: QVQLVESGGGVVQPGRSLRLSCAASGFTFSSYTMHWVRQAPGKGLEWVTFISYDGNNKYYADSVKGRFTISRDNSKNTLYLQMNSLRAEDTAIYYCARTGWLGPFDYWGQGTLVTVSS
VL: not shown
modifications: succinimide residue (or its ring-opened derivative) left on Cys 57 of SEQ ID NO:10 after cleavage of the linker
B3: de-prodrugged Antibody B1 (antibody, human IgG1, kappa, V domains shown)
VH: QVQLVESGGGVVQPGRSLRLSCAASGFTFSSYTMHWVRQAPGKGLEWVTFISYDGNNKYYADSVKGRFTISRDNSKNTLYLQMNSLRAEDTAIYYCARTGWLGPFDYWGQGTLVTVSS
VL: not shown
modifications: succinimide residue (or its ring-opened derivative) left on Cys 28 of SEQ ID NO:10 after cleavage of the linker
B4: de-prodrugged Antibody C1 (antibody, human IgG1, kappa, V domains shown)
VH: QVQLVESGGGVVQPGRSLRLSCAASGFTFSSYTMHWVRQAPGKGLEWVTFISYDGNNKYYADSVKGRFTISRDNSKNTLYLQMNSLRAEDTAIYYCARTGWLGPFDYWGQGTLVTVSS
VL: not shown
modifications: succinimide residue (or its ring-opened derivative) left on Cys 31 of SEQ ID NO:10 after cleavage of the linker
B5: de-prodrugged Antibody D1 (antibody, human IgG1, kappa, V domains shown)
VH: QVQLVESGGGVVQPGRSLRLSCAASGFTFSSYTMHWVRQAPGKGLEWVTFISYDGNNKYYADSVKGRFTISRDNSKNTLYLQMNSLRAEDTAIYYCARTGWLGPFDYWGQGTLVTVSS
VL: not shown
modifications: succinimide residue (or its ring-opened derivative) left on Cys 53 of SEQ ID NO:10 after cleavage of the linker

Target: T1, CTLA4 (UniProt P16410 36-223, limits assumed)
T1 sequence (looked up): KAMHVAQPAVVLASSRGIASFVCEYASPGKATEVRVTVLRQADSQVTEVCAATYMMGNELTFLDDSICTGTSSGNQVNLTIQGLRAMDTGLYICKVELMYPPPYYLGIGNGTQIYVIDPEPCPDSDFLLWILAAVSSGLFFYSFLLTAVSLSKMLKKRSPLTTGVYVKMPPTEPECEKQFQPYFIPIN
Assay: cell-based or functional assay

IL-2 secretion by SEB-stimulated PBMC (HTRF), ~3 fold:
B1
B2
B3
B4
B5
